T1: Human CD3eg linker (human)
T1 construct: Single chain: epsilon and gamma subunits of human CD3 joined by a 29-mer linker, Flag-tag at the C-terminus; also called recombinant human CD3
T1 chain: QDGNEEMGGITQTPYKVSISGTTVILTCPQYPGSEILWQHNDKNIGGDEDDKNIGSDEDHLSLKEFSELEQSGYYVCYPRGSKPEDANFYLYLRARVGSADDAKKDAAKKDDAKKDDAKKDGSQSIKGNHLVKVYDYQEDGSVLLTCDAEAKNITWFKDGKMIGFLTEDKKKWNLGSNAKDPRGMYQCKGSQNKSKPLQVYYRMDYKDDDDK


Target: T1, Human CD3eg linker
Experiment: Biacore SPR, vs template H183/L072

Binder	fold change of affinity
H183/L072 VH N53F (antibody, name in Kabat numbering, V domains shown) VH: QVQLVESGGGLVQPGRSLRLSCAASGFTFSNAWMHWVRQAPGKGLEWVAQIKDKGFAYAAYYAPSVKGRFTISRDDSKNSIYLQMNSLKTEDTAVYYCHYVHYASASTVLPAFGVDAWGQGTTVTVSS VL: DIVMTQSPLSLPVTPGEPASISCQASQELVHMNRNTYLHWYQQKPGQAPRLLIYKVSNRFPGVPDRFSGSGSGTDFTLKISRVEAEDVGVYYCAQGTSVPFTFGQGTKLEIK	0.8 fold
H183/L072 VH N53M (antibody, name in Kabat numbering, V domains shown) VH: QVQLVESGGGLVQPGRSLRLSCAASGFTFSNAWMHWVRQAPGKGLEWVAQIKDKGMAYAAYYAPSVKGRFTISRDDSKNSIYLQMNSLKTEDTAVYYCHYVHYASASTVLPAFGVDAWGQGTTVTVSS VL: DIVMTQSPLSLPVTPGEPASISCQASQELVHMNRNTYLHWYQQKPGQAPRLLIYKVSNRFPGVPDRFSGSGSGTDFTLKISRVEAEDVGVYYCAQGTSVPFTFGQGTKLEIK	0.5 fold
H183/L072 VH N53G (antibody, name in Kabat numbering, V domains shown) VH: QVQLVESGGGLVQPGRSLRLSCAASGFTFSNAWMHWVRQAPGKGLEWVAQIKDKGGAYAAYYAPSVKGRFTISRDDSKNSIYLQMNSLKTEDTAVYYCHYVHYASASTVLPAFGVDAWGQGTTVTVSS VL: DIVMTQSPLSLPVTPGEPASISCQASQELVHMNRNTYLHWYQQKPGQAPRLLIYKVSNRFPGVPDRFSGSGSGTDFTLKISRVEAEDVGVYYCAQGTSVPFTFGQGTKLEIK	0.4 fold
H183/L072 VH N53Q (antibody, name in Kabat numbering, V domains shown) VH: QVQLVESGGGLVQPGRSLRLSCAASGFTFSNAWMHWVRQAPGKGLEWVAQIKDKGQAYAAYYAPSVKGRFTISRDDSKNSIYLQMNSLKTEDTAVYYCHYVHYASASTVLPAFGVDAWGQGTTVTVSS VL: DIVMTQSPLSLPVTPGEPASISCQASQELVHMNRNTYLHWYQQKPGQAPRLLIYKVSNRFPGVPDRFSGSGSGTDFTLKISRVEAEDVGVYYCAQGTSVPFTFGQGTKLEIK	0.5 fold
H183/L072 VH N53L (antibody, name in Kabat numbering, V domains shown) VH: QVQLVESGGGLVQPGRSLRLSCAASGFTFSNAWMHWVRQAPGKGLEWVAQIKDKGLAYAAYYAPSVKGRFTISRDDSKNSIYLQMNSLKTEDTAVYYCHYVHYASASTVLPAFGVDAWGQGTTVTVSS VL: DIVMTQSPLSLPVTPGEPASISCQASQELVHMNRNTYLHWYQQKPGQAPRLLIYKVSNRFPGVPDRFSGSGSGTDFTLKISRVEAEDVGVYYCAQGTSVPFTFGQGTKLEIK	0.6 fold
H183/L072 VH N53P (antibody, name in Kabat numbering, V domains shown) VH: QVQLVESGGGLVQPGRSLRLSCAASGFTFSNAWMHWVRQAPGKGLEWVAQIKDKGPAYAAYYAPSVKGRFTISRDDSKNSIYLQMNSLKTEDTAVYYCHYVHYASASTVLPAFGVDAWGQGTTVTVSS VL: DIVMTQSPLSLPVTPGEPASISCQASQELVHMNRNTYLHWYQQKPGQAPRLLIYKVSNRFPGVPDRFSGSGSGTDFTLKISRVEAEDVGVYYCAQGTSVPFTFGQGTKLEIK	0 fold
H183/L072 VH N53K (antibody, name in Kabat numbering, V domains shown) VH: QVQLVESGGGLVQPGRSLRLSCAASGFTFSNAWMHWVRQAPGKGLEWVAQIKDKGKAYAAYYAPSVKGRFTISRDDSKNSIYLQMNSLKTEDTAVYYCHYVHYASASTVLPAFGVDAWGQGTTVTVSS VL: DIVMTQSPLSLPVTPGEPASISCQASQELVHMNRNTYLHWYQQKPGQAPRLLIYKVSNRFPGVPDRFSGSGSGTDFTLKISRVEAEDVGVYYCAQGTSVPFTFGQGTKLEIK	0.6 fold
H183/L072 VH N53R (antibody, name in Kabat numbering, V domains shown) VH: QVQLVESGGGLVQPGRSLRLSCAASGFTFSNAWMHWVRQAPGKGLEWVAQIKDKGRAYAAYYAPSVKGRFTISRDDSKNSIYLQMNSLKTEDTAVYYCHYVHYASASTVLPAFGVDAWGQGTTVTVSS VL: DIVMTQSPLSLPVTPGEPASISCQASQELVHMNRNTYLHWYQQKPGQAPRLLIYKVSNRFPGVPDRFSGSGSGTDFTLKISRVEAEDVGVYYCAQGTSVPFTFGQGTKLEIK	0.8 fold
H183/L072 VH N53I (antibody, name in Kabat numbering, V domains shown) VH: QVQLVESGGGLVQPGRSLRLSCAASGFTFSNAWMHWVRQAPGKGLEWVAQIKDKGIAYAAYYAPSVKGRFTISRDDSKNSIYLQMNSLKTEDTAVYYCHYVHYASASTVLPAFGVDAWGQGTTVTVSS VL: DIVMTQSPLSLPVTPGEPASISCQASQELVHMNRNTYLHWYQQKPGQAPRLLIYKVSNRFPGVPDRFSGSGSGTDFTLKISRVEAEDVGVYYCAQGTSVPFTFGQGTKLEIK	0.4 fold
H183/L072 VH N53H (antibody, name in Kabat numbering, V domains shown) VH: QVQLVESGGGLVQPGRSLRLSCAASGFTFSNAWMHWVRQAPGKGLEWVAQIKDKGHAYAAYYAPSVKGRFTISRDDSKNSIYLQMNSLKTEDTAVYYCHYVHYASASTVLPAFGVDAWGQGTTVTVSS VL: DIVMTQSPLSLPVTPGEPASISCQASQELVHMNRNTYLHWYQQKPGQAPRLLIYKVSNRFPGVPDRFSGSGSGTDFTLKISRVEAEDVGVYYCAQGTSVPFTFGQGTKLEIK	1.1 fold
H183/L072 VH N53S (antibody, name in Kabat numbering, V domains shown) VH: QVQLVESGGGLVQPGRSLRLSCAASGFTFSNAWMHWVRQAPGKGLEWVAQIKDKGSAYAAYYAPSVKGRFTISRDDSKNSIYLQMNSLKTEDTAVYYCHYVHYASASTVLPAFGVDAWGQGTTVTVSS VL: DIVMTQSPLSLPVTPGEPASISCQASQELVHMNRNTYLHWYQQKPGQAPRLLIYKVSNRFPGVPDRFSGSGSGTDFTLKISRVEAEDVGVYYCAQGTSVPFTFGQGTKLEIK	0.8 fold

Other lines, results leading:

fold change of affinity	Binder
1.8 fold	H183/L072 VH P61M (antibody, name in Kabat numbering, V domains shown) VH: QVQLVESGGGLVQPGRSLRLSCAASGFTFSNAWMHWVRQAPGKGLEWVAQIKDKGNAYAAYYAMSVKGRFTISRDDSKNSIYLQMNSLKTEDTAVYYCHYVHYASASTVLPAFGVDAWGQGTTVTVSS VL: DIVMTQSPLSLPVTPGEPASISCQASQELVHMNRNTYLHWYQQKPGQAPRLLIYKVSNRFPGVPDRFSGSGSGTDFTLKISRVEAEDVGVYYCAQGTSVPFTFGQGTKLEIK
1.2 fold	H183/L072 VH P100eA (antibody, name in Kabat numbering, V domains shown) VH: QVQLVESGGGLVQPGRSLRLSCAASGFTFSNAWMHWVRQAPGKGLEWVAQIKDKGNAYAAYYAPSVKGRFTISRDDSKNSIYLQMNSLKTEDTAVYYCHYVHYASASTVLAAFGVDAWGQGTTVTVSS VL: DIVMTQSPLSLPVTPGEPASISCQASQELVHMNRNTYLHWYQQKPGQAPRLLIYKVSNRFPGVPDRFSGSGSGTDFTLKISRVEAEDVGVYYCAQGTSVPFTFGQGTKLEIK
0.5 fold	H183/L072 VH N53V (antibody, name in Kabat numbering, V domains shown) VH: QVQLVESGGGLVQPGRSLRLSCAASGFTFSNAWMHWVRQAPGKGLEWVAQIKDKGVAYAAYYAPSVKGRFTISRDDSKNSIYLQMNSLKTEDTAVYYCHYVHYASASTVLPAFGVDAWGQGTTVTVSS VL: DIVMTQSPLSLPVTPGEPASISCQASQELVHMNRNTYLHWYQQKPGQAPRLLIYKVSNRFPGVPDRFSGSGSGTDFTLKISRVEAEDVGVYYCAQGTSVPFTFGQGTKLEIK
1.8 fold	H183/L072 VH P61I (antibody, name in Kabat numbering, V domains shown) VH: QVQLVESGGGLVQPGRSLRLSCAASGFTFSNAWMHWVRQAPGKGLEWVAQIKDKGNAYAAYYAISVKGRFTISRDDSKNSIYLQMNSLKTEDTAVYYCHYVHYASASTVLPAFGVDAWGQGTTVTVSS VL: DIVMTQSPLSLPVTPGEPASISCQASQELVHMNRNTYLHWYQQKPGQAPRLLIYKVSNRFPGVPDRFSGSGSGTDFTLKISRVEAEDVGVYYCAQGTSVPFTFGQGTKLEIK
1.8 fold	H183/L072 VH P61L (antibody, name in Kabat numbering, V domains shown) VH: QVQLVESGGGLVQPGRSLRLSCAASGFTFSNAWMHWVRQAPGKGLEWVAQIKDKGNAYAAYYALSVKGRFTISRDDSKNSIYLQMNSLKTEDTAVYYCHYVHYASASTVLPAFGVDAWGQGTTVTVSS VL: DIVMTQSPLSLPVTPGEPASISCQASQELVHMNRNTYLHWYQQKPGQAPRLLIYKVSNRFPGVPDRFSGSGSGTDFTLKISRVEAEDVGVYYCAQGTSVPFTFGQGTKLEIK
0.6 fold	H183/L072 VH N53T (antibody, name in Kabat numbering, V domains shown) VH: QVQLVESGGGLVQPGRSLRLSCAASGFTFSNAWMHWVRQAPGKGLEWVAQIKDKGTAYAAYYAPSVKGRFTISRDDSKNSIYLQMNSLKTEDTAVYYCHYVHYASASTVLPAFGVDAWGQGTTVTVSS VL: DIVMTQSPLSLPVTPGEPASISCQASQELVHMNRNTYLHWYQQKPGQAPRLLIYKVSNRFPGVPDRFSGSGSGTDFTLKISRVEAEDVGVYYCAQGTSVPFTFGQGTKLEIK
1.2 fold	H183/L072 VH N53W (antibody, name in Kabat numbering, V domains shown) VH: QVQLVESGGGLVQPGRSLRLSCAASGFTFSNAWMHWVRQAPGKGLEWVAQIKDKGWAYAAYYAPSVKGRFTISRDDSKNSIYLQMNSLKTEDTAVYYCHYVHYASASTVLPAFGVDAWGQGTTVTVSS VL: DIVMTQSPLSLPVTPGEPASISCQASQELVHMNRNTYLHWYQQKPGQAPRLLIYKVSNRFPGVPDRFSGSGSGTDFTLKISRVEAEDVGVYYCAQGTSVPFTFGQGTKLEIK
0.9 fold	H183/L072 VH N53Y (antibody, name in Kabat numbering, V domains shown) VH: QVQLVESGGGLVQPGRSLRLSCAASGFTFSNAWMHWVRQAPGKGLEWVAQIKDKGYAYAAYYAPSVKGRFTISRDDSKNSIYLQMNSLKTEDTAVYYCHYVHYASASTVLPAFGVDAWGQGTTVTVSS VL: DIVMTQSPLSLPVTPGEPASISCQASQELVHMNRNTYLHWYQQKPGQAPRLLIYKVSNRFPGVPDRFSGSGSGTDFTLKISRVEAEDVGVYYCAQGTSVPFTFGQGTKLEIK
1.9 fold	H183/L072 VH P61A (antibody, name in Kabat numbering, V domains shown) VH: QVQLVESGGGLVQPGRSLRLSCAASGFTFSNAWMHWVRQAPGKGLEWVAQIKDKGNAYAAYYAASVKGRFTISRDDSKNSIYLQMNSLKTEDTAVYYCHYVHYASASTVLPAFGVDAWGQGTTVTVSS VL: DIVMTQSPLSLPVTPGEPASISCQASQELVHMNRNTYLHWYQQKPGQAPRLLIYKVSNRFPGVPDRFSGSGSGTDFTLKISRVEAEDVGVYYCAQGTSVPFTFGQGTKLEIK

Reference: patent publication US20210388087A1 (Chugai, published 2021)
